Results from patent CN113929781A (MABWELL SHANGHAI BIOTECHNOLOGY CO LTD; JIANGSU MAIWEIKANG …, dated 2022).

Experiments:
人PD-1-hFc [1] = target: T1, 人PD-1-hFc (human, UniProt Q15116 21-167); test: competition ELISA, PD-1-hFc coated, competitor PD-L1-mFc at 1 μg/mL
T1 construct: range 21-167; also called 重组人PD-1; Lot 20180329; not shown: human Fc (hFc)

人PD-1-hFc [2] = target: T1, 人PD-1-hFc; test: competition ELISA, PD-1-hFc coated, competitor PD-L2-hFc-Biotin at 2 μg/mL

T1 sequence (Q15116 21-167 limits assumed, form in doubt): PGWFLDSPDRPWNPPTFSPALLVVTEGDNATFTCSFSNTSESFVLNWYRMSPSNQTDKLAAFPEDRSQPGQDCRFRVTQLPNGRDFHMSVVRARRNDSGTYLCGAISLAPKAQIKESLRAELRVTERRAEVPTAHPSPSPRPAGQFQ

IC50 (人PD-1-hFc [1]): 1.4 nM
IC50 (人PD-1-hFc [2]): 1.2 nM
B1: h317 (antibody, V domains shown)
VH: EVQLVESGGGLVKPGGSLRLSCAASGFTFSSYDMSWVRQAPGKGLEWVATISGGGSYTYYPDSVKGRFTISRDNAKNSLYLQMNSLRAEDTAVYYCASPDSSGVAYWGQGTLVTVSS
VL: DIVMTQSPLSLPVTPGEPASITCKASQDVETVVAWYLQKPGQSPRLLIYWASTRHTGVPDRFSGSGSGTDFTLKISRVEAEDVGVYYCQQYSRYPWTFGQGTKL
